Measurements published in article PMC4789106 (Biochemistry, 2015).
Read-outs that look alike come from different tables or passages of the source.

B1: A546T FAS1-4 (fourth fasciclin 1 domain of TGFBIp with the A546T substitution) (domain or fragment, human)
chain: AGMGTVMDVLKGDNRFSMLVAAIQSAGLTETLNREGVYTVFAPTNETFRALPPRERSRLLGDAKELANILKYHIGDEILVSGGIGALVRLKSLQGDKLEVSLKNNVVSVNKEPVAEPDIMATNGVVHVITNVLQPPANRPQERGDELADSALEIFKQA
B2: Y571-R588 peptide of TGFBIp (peptide, UniProt Q15582 571-588, looked up)
peptide: YHIGDEILVSGGIGALVR
B3: Transforming growth factor beta-induced protein (TGFBIp) from human corneal stroma extract (natural protein, human (endogenous in corneal stroma), UniProt Q15582 24-683, looked up)
chain: GPAKSPYQLVLQHSRLRGRQHGPNVCAVQKVIGTNRKYFTNCKQWYQRKICGKSTVISYECCPGYEKVPGEKGCPAALPLSNLYETLGVVGSTTTQLYTDRTEKLRPEMEGPGSFTIFAPSNEAWASLPAEVLDSLVSNVNIELLNALRYHMVGRRVLTDELKHGMTLTSMYQNSNIQIHHYPNGIVTVNCARLLKADHHATNGVVHLIDKVISTITNNIQQIIEIEDTFETLRAAVAASGLNTMLEGNGQYTLLAPTNEAFEKIPSETLNRILGDPEALRDLLNNHILKSAMCAEAIVAGLSVETLEGTTLEVGCSGDMLTINGKAIISNKDILATNGVIHYIDELLIPDSAKTLFELAAESDVSTAIDLFRQAGLGNHLSGSERLTLLAPLNSVFKDGTPPIDAHTRNLLRNHIIKDQLASKYLYHGQTLETLGGKKLRVFVYRNSLCIENSCIAAHDKRGRYGTLFTMDRVLTPPMGTVMDVLKGDNRFSMLVAAIQSAGLTETLNREGVYTVFAPTNEAFRALPPRERSRLLGDAKELANILKYHIGDEILVSGGIGALVRLKSLQGDKLEVSLKNNVVSVNKEPVAEPDIMATNGVVHVITNVLQPPANRPQERGDELADSALEIFKQASAFSRASQRSVRLAPVYQKLLERMKH
B4: Recombinant WT TGFBIp (natural protein, human, UniProt Q15582 24-683, looked up)
chain: B3 chain

Legend:
[1] = biological target: the molecule itself; assay: ThT fluorescence fibrillation assay + TEM
Recombinant WT TGFBIp = biological target: B4; assay: pull-down
[2] = biological target: the molecule itself; assay: centrifugation and limited trypsin proteolysis of fibrils
[3] = biological target: B2; assay: pull-down
[4] = biological target: B2; assay: pull-down

Binder | binding result [1] | binding result (Recombinant WT TGFBIp) | other results
FSMLVAAIQSAGLTETLNR (peptide, UniProt Q15582 515-533, looked up) [F515-R533 peptide of TGFBIp] | binds | binds | –
B1 | – | binds | binding result [2]: binds
B2 | binds | – | –
B3 | – | – | amount of TGFBIp bound, fold against F515-R533 fibrils [3]: ~3 times
B4 | – | – | amount of TGFBIp bound, fold against F515-R533 fibrils [4]: ~1.6 times
